Our source for the Kd and EC50 values is US20240092930A1 (MABWELL SHANGHAI BIOSCIENCE, published 2024).

The chains are these.
T1: recombinant human Trop-2-his protein (ACCESSION NO.: NP_002344.2, AA 1-274) (human, UniProt P09758 27-274)
T1 construct: range 27-274; also called recombinant human Trop-2 protein; recombinant human Trop-2 extracellular domain; not shown: his tag
T1 sequence (looked up): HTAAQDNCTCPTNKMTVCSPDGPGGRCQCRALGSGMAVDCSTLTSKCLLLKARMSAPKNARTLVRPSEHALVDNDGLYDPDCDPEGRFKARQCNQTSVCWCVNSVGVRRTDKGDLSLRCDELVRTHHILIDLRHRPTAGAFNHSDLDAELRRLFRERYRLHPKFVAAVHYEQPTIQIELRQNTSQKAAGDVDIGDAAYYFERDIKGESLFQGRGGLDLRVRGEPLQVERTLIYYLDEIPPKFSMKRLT

T2: human Trop-2 on the surface of cells (CHO/Trop-2 cells; BxPC-3 cells; NCI-N87 cells) (human, UniProt P09758 27-323)
T2 construct: whole, on cells; One molecule for all cell lines; the cell line is named under assay or readout; also called Trop-2 on the surface of CHO cells; recombinant human Trop-2 protein on the surface of CHO cells
T2 sequence (looked up): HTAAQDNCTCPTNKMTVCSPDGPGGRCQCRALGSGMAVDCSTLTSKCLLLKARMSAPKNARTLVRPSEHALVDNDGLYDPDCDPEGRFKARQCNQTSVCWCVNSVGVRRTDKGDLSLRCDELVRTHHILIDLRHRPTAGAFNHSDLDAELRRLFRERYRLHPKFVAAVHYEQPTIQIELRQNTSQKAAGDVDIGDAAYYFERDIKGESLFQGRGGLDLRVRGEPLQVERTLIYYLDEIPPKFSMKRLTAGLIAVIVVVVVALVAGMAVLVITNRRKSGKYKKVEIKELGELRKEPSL

B1: h11-4-9 (antibody, human IgG1, kappa, name in Kabat numbering, V domains shown)
VH: EVQLVQSGAEVKKPGASVKVSCKASGYTFTSYWINWVRQAPGQGLEWMGNIYPSNSYTNYNQKFKDRVTMTRDTSTSTVYMELSSLRSEDTAVYYCSSYRSDGFAYWGQGTLVTVSS
VL: EIVLTQSPATLSLSPGERATLSCRASQNIGTSIEWYQQKPGQAPRLLIEFASESISGIPARFSGSGSGTDFTLTISSLEPEDFAVYYCQQSNSWPFTFGGGTKVEIKR
B2: h11-4-14 (antibody, human IgG1, kappa, name in Kabat numbering, V domains shown)
VH: EVQLVQSGAEVKKPGASVKVSCKASGYTFTSYWINWVRQAPGQGLEWMGNIYPSNSYTNYNQKFKDRVTMTRDTSTSTVYMELSSLRSEDTAVYYCSSYRSEGFAYWGQGTLVTVSS
VL: EIVLTQSPATLSLSPGERATLSCRASQNIGTSISWYQQKPGQAPRLLIEFASESISGIPARFSGSGSGTDFTLTISSLEPEDFAVYYCQQSNSWPFTFGGGTKVEIKR
B3: h11-4-15 (antibody, human IgG1, kappa, name in Kabat numbering, V domains shown)
VH: EVQLVQSGAEVKKPGASVKVSCKASGYTFTSYWINWVRQAPGQGLEWMGNIYPSNSYTNYNQKFKDRVTMTRDTSTSTVYMELSSLRSEDTAVYYCSSYRSGGFAYWGQGTLVTVSS
VL: EIVLTQSPATLSLSPGERATLSCRASQNIGTSISWYQQKPGQAPRLLIEFASESISGIPARFSGSGSGTDFTLTISSLEPEDFAVYYCQQSNSWPFTFGGGTKVEIKR
B4: h11-4-13 (antibody, human IgG1, kappa, name in Kabat numbering, V domains shown)
VH: EVQLVQSGAEVKKPGASVKVSCKASGYTFTSYWINWVRQAPGQGLEWMGNIYPSNSYTNYNQKFKDRVTMTRDTSTSTVYMELSSLRSEDTAVYYCSSYRSDGFAYWGQGTLVTVSS
VL: EIVLTQSPATLSLSPGERATLSCRASQNIGTSISWYQQKPGQAPRLLIEFASESISGIPARFSGSGSGTDFTLTISSLEPEDFAVYYCQQSNSWPFTFGGGTKVEIKR
B5: h11-4-20 (antibody, human IgG1, kappa, name in Kabat numbering, V domains shown)
VH: EVQLVQSGAEVKKPGASVKVSCKASGYTFTSYWINWVRQAPGQGLEWMGNIYPSNSYTNYNQKFKDRVTMTRDTSTSTVYMELSSLRSEDTAVYYCSSYRSDAFAYWGQGTLVTVSS
VL: EIVLTQSPATLSLSPGERATLSCRASQNIGTSIAWYQQKPGQAPRLLIEFASESISGIPARFSGSGSGTDFTLTISSLEPEDFAVYYCQQSNSWPFTFGGGTKVEIKR
B6: h11-4-10 (antibody, human IgG1, kappa, name in Kabat numbering, V domains shown)
VH: EVQLVQSGAEVKKPGASVKVSCKASGYTFTSYWINWVRQAPGQGLEWMGNIYPSNSYTNYNQKFKDRVTMTRDTSTSTVYMELSSLRSEDTAVYYCSSYRSEGFAYWGQGTLVTVSS
VL: EIVLTQSPATLSLSPGERATLSCRASQNIGTSIEWYQQKPGQAPRLLIEFASESISGIPARFSGSGSGTDFTLTISSLEPEDFAVYYCQQSNSWPFTFGGGTKVEIKR
B7: h11-4-12 (antibody, human IgG1, kappa, name in Kabat numbering, V domains shown)
VH: EVQLVQSGAEVKKPGASVKVSCKASGYTFTSYWINWVRQAPGQGLEWMGNIYPSNSYTNYNQKFKDRVTMTRDTSTSTVYMELSSLRSEDTAVYYCSSYRSDAFAYWGQGTLVTVSS
VL: EIVLTQSPATLSLSPGERATLSCRASQNIGTSIEWYQQKPGQAPRLLIEFASESISGIPARFSGSGSGTDFTLTISSLEPEDFAVYYCQQSNSWPFTFGGGTKVEIKR
B8: h11-4-11 (antibody, human IgG1, kappa, name in Kabat numbering, V domains shown)
VH: EVQLVQSGAEVKKPGASVKVSCKASGYTFTSYWINWVRQAPGQGLEWMGNIYPSNSYTNYNQKFKDRVTMTRDTSTSTVYMELSSLRSEDTAVYYCSSYRSGGFAYWGQGTLVTVSS
VL: EIVLTQSPATLSLSPGERATLSCRASQNIGTSIEWYQQKPGQAPRLLIEFASESISGIPARFSGSGSGTDFTLTISSLEPEDFAVYYCQQSNSWPFTFGGGTKVEIKR
B9: h11-4-19 (antibody, human IgG1, kappa, name in Kabat numbering, V domains shown)
VH: EVQLVQSGAEVKKPGASVKVSCKASGYTFTSYWINWVRQAPGQGLEWMGNIYPSNSYTNYNQKFKDRVTMTRDTSTSTVYMELSSLRSEDTAVYYCSSYRSGGFAYWGQGTLVTVSS
VL: EIVLTQSPATLSLSPGERATLSCRASQNIGTSIAWYQQKPGQAPRLLIEFASESISGIPARFSGSGSGTDFTLTISSLEPEDFAVYYCQQSNSWPFTFGGGTKVEIKR
B10: h11-4-16 (antibody, human IgG1, kappa, name in Kabat numbering, V domains shown)
VH: EVQLVQSGAEVKKPGASVKVSCKASGYTFTSYWINWVRQAPGQGLEWMGNIYPSNSYTNYNQKFKDRVTMTRDTSTSTVYMELSSLRSEDTAVYYCSSYRSDAFAYWGQGTLVTVSS
VL: EIVLTQSPATLSLSPGERATLSCRASQNIGTSISWYQQKPGQAPRLLIEFASESISGIPARFSGSGSGTDFTLTISSLEPEDFAVYYCQQSNSWPFTFGGGTKVEIKR
B11: h11-4-18 (antibody, human IgG1, kappa, name in Kabat numbering, V domains shown)
VH: EVQLVQSGAEVKKPGASVKVSCKASGYTFTSYWINWVRQAPGQGLEWMGNIYPSNSYTNYNQKFKDRVTMTRDTSTSTVYMELSSLRSEDTAVYYCSSYRSEGFAYWGQGTLVTVSS
VL: EIVLTQSPATLSLSPGERATLSCRASQNIGTSIAWYQQKPGQAPRLLIEFASESISGIPARFSGSGSGTDFTLTISSLEPEDFAVYYCQQSNSWPFTFGGGTKVEIKR
B12: h11-4-17 (antibody, human IgG1, kappa, name in Kabat numbering, V domains shown)
VH: EVQLVQSGAEVKKPGASVKVSCKASGYTFTSYWINWVRQAPGQGLEWMGNIYPSNSYTNYNQKFKDRVTMTRDTSTSTVYMELSSLRSEDTAVYYCSSYRSDGFAYWGQGTLVTVSS
VL: EIVLTQSPATLSLSPGERATLSCRASQNIGTSIAWYQQKPGQAPRLLIEFASESISGIPARFSGSGSGTDFTLTISSLEPEDFAVYYCQQSNSWPFTFGGGTKVEIKR
B13: chimeric antibody ch17-1 (antibody, human IgG1, V domains shown)
VH: EVKLVESGGVLVKPGGSLKLSCAASGFTFSDSAMSWVRQTPEKRLEWVASISRGDDTYYPDSVKGRITISRDFARNILYLQMTSLRSEDTAMYYCTRDRFGFAYWGQGTLVTVSA
VL: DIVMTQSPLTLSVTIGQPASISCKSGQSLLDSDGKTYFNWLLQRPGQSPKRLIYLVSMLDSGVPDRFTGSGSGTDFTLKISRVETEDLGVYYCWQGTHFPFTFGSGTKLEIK

The first test deals with T1, recombinant human Trop-2-his protein …. Description: BLI, antibody on AHC sensor, Trop-2-his 60 nM. How it is done: 5-6 days after cell transfection, culture supernatants were purified through ProA affinity chromatography column to obtain different humanized antibodies. Affinities of the obtained antibodies were determined by an assay including capturing Fc fragments of the antibodies with anti-human IgG Fc capture (AHC) biosensors using Octet QKe system instrument from Fortebio. For the assay, each of the humanized antibodies and control antibody Sacituzumab was diluted to 4 μg/ml in PBS, and was allowed to flow through the surface of an AHC biosensor (Cat.: 18-0015, PALL) for 120 s. Recombinant human Trop-2-his protein (ACCESSION NO.: NP_002344.2, AA 1-274) was used as a mobile phase, and its concentration was 60 nM. The binding time was 100 s and the dissociation time was 300 s. When the assay was finished, data from which the response values of blank control had been deducted were fitted to a 1:1 Langmuir binding model using software, and then kinetic constants for antigen-antibody binding were calculated.
Affinities of the antibodies obtained from the combinations of mutants of murine antibody 11-4, chimeric antibody ch11-4 and control antibody Sacituzumab to recombinant human Trop-2-his protein were determined by ForteBio (Table 11).
(BLI is a label-free optical method that tracks binding on a fibre tip over time.)
With B1, the Kd (commonly the free concentration of one partner at which half of the binding sites on the other are occupied at equilibrium, for simple one-to-one binding) was 0.301 nM.
On the same count and under the same terms, with B2 the figure was 0.352 nM; with B3, 0.389 nM; with B4, 0.211 nM.
Still for that read-out and setting: next, B5: 0.21 nM; B6: 0.351 nM.
As to B7, the Kd amounted to 0.282 nM.
The same measure, in the same setting: with B8 the figure was 0.375 nM.
In the case of B9, the Kd came to 0.254 nM.
With B10, the Kd came to 0.231 nM.
Same read-out and setting: next, B11: 0.394 nM; B12: 0.238 nM.

The next test has the same target. Kind of test: ELISA, coated Trop-2-his 0.2 µg/ml. How it is done:
Plates were coated with recombinant human Trop-2-his protein (ACCESSION NO.: NP_002344.2, AA 1-274) at a concentration of 0.2 μg/ml overnight at 4° C. and then blocked with 5% BSA for 60 min in a constant temperature incubator at 37° C. Chimeric antibodies ch3-11, ch4-3, ch17-1, ch11-4, and ch23-12 and control antibody Sacituzumab (serial dilutions of 8 concentrations in total obtained through 3-fold serially diluting a solution with an initial concentration of 2 μg/ml) were added into the plates which were then incubated in a constant temperature incubator at 37° C. for 60 min. The plates were washed with PBST 4 times, and 1:5000 dilution of HRP-anti-human Fc (Cat.: 109-035-098, Jackson ImmunoResearch) was added into the plates for reaction for 45 min. TMB (Cat.: ME142, GalaxyBio, Beijing) substrate was added for color development for 15 min, and then 2M HCl was added to stop reaction. Absorbances at 450 nm and at 630 nm (as reference wavelength) were read, and A450 nm-630 nm values of the wells in the plates were recorded.
In general terms: ELISA stands for enzyme-linked immunosorbent assay.
As to B13, the EC50 – broadly, the midpoint of the concentration-response curve – was 0.328 nM.

For a further test, the target named is T2, human Trop-2 on the surface of cells …. Description: FACS, CHO/Trop-2 cells. How it is done: Suspensions of CHO cells recombinantly expressing human Trop-2 (CHO/Trop-2 cells) were incubated with chimeric antibodies ch3-11, ch4-3, ch17-1, ch11-4, and ch23-12 (dilutions at concentrations of 30 μg/ml and 10 μg/ml, and serial dilutions of 9 concentrations obtained through 3-fold serially diluting a solution with an initial concentration of 5 μg/ml, 11 concentrations in total) for 30 min at 37° C. Controls as follows were set: (1) Positive Control (PC): control antibody Sacituzumab; (2) Negative Control (NC): IgG1 isotype control antibody NC-IgG1. The cells were washed 3 times with PBS, and 1:100 dilution of goat anti-human IgG-FITC (Cat.: F9512, Sigma) was added into the cell which then were incubated for 30 min. Then the cells were washed 3 times with PBS again, and the Mean Fluorescence Intensity (MFI) of the cells was measured by a flow cytometer (model B49007AD, SNAW31211, BECKMAN COULTER) to detect binding ability of the chimeric antibodies to human Trop-2 on the surface of CHO cells.
On to B13, for which the EC50 amounted to 2.92 nM.
